# Publication PMC7736808
# Tests used:
# Assay in all cases: MST
# Conditions in all cases: 5-bromo-dC at every C, MST at 22 C, 5 nM labeled DNA, 0.5 mg/ml BSA, 0.05% Tween 20, 5 mM HEPES pH 7.5, 20 mM NaCl (Table 2), 20 mM HEPES pH 8.0, 100 mM NaCl (Table 4)
# hZαADAR1 (human) [1] = target: T1, hZαADAR1 (human) (UniProt P55265)
# T1 sequence: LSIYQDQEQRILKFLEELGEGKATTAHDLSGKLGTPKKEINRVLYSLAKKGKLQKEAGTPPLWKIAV
# [2] = target: T2, GH5*:α3NADAR1-PW K41G;S42G;R43G;K53A;R95A;del65;D66K;L67K;Q68E;K70N;L71R;S72V;I73L;R74Y;R75S;S91P;F94W (/ human ADAR1 α3N and β-wing residues) (UniProt P02259)
# T2 sequence: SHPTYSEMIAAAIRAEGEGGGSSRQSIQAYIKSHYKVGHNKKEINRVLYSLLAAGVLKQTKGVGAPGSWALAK
# hZαADAR1 (human) [3] = target: T1, hZαADAR1 (human); remark: listed apart in the source
# vvZαE3L = vvZαE3L (UniProt P21605)
sequence,measurement,setting,value
"TCGCGCGCGCGCGCGCGCGCGCGCGCGCGCG (double strand) [Z-DNA, [d(5'-Cy5-T(Br5CG)15)]2]",Kd,hZαADAR1 (human) [1],600 nM
same,Kd,[2],1800 nM
same,Kd,hZαADAR1 (human) [3],18 nM
same,Kd,vvZαE3L,2000 nM
